Experimental data from US20250121087A1 (INTOCELL, published 2025).
Changes are numbered by the printed parent chain. Numbers in names are those of the source. Values belong to the binder of their own block, whether it stands above or below them.

Columns and labels:
[1] = target: T1, human B7-H3 (Y-Biologics Inc.) (human, UniProt Q5ZPR3 29-466); assay: BLI (Octet QKe), antibody on AHC biosensor, human B7-H3 as analyte, 1:1 global fit
T1 chain: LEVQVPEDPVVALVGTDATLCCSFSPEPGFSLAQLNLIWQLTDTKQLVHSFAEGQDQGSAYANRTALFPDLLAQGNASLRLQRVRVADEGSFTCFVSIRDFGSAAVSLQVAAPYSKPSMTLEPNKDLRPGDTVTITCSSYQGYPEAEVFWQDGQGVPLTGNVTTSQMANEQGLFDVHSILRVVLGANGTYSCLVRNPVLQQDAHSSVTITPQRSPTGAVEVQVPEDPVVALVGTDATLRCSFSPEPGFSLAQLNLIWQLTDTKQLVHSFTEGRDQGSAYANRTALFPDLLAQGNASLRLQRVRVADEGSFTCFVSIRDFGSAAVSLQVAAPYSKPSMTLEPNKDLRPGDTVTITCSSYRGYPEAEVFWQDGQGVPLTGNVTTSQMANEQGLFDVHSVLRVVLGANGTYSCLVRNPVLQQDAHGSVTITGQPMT

[2] = target: T2, Mouse B7-H3 (Sino biological Inc.) (mouse, UniProt Q8VE98 29-244, limits assumed); assay: SPR (Biacore 8K), antibody captured on anti-human Fc, antigen as analyte, 1:1 fit
T2 sequence (looked up): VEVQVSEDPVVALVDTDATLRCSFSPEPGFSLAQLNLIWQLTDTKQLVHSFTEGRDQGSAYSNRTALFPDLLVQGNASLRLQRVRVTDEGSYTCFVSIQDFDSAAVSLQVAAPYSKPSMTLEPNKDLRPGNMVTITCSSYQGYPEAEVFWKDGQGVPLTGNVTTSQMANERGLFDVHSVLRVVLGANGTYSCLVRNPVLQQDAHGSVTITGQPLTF
Method: (§1) A Biacore 8K (GE Life science) instrument was used to measure the binding kinetics about several B7-H3 variants (analyte) binding to various mAbs (ligands). Antibodies were captured onto the immobilized anti-human Fc antibody (GE Life science). […] For binding kinetic measurements, the HBS-EP+ was used for running buffer (10 mM Hepes, pH7.4, 150 mM NaCl, 3 mM EDTA, 0.05% polysorbate20). […] After capturing ligand, various B7-H3 antigens were analyzed for 120 s and the dissociation was monitored for 600 s at a flow rate of 30 ul/min. […] For the kinetic analysis, 5 points of 2-fold diluted analytes were flown over the captured ligand ranging from 20 nM of human 4Ig B7-H3 (Y-Biologics Inc.), 320 nM of human 2Ig B7-H3 (Acrobiosystems), 40 nM of cynomolgus monkey B7-H3 (Sino biological Inc.), and 160 nM of mouse B7-H3 (Sino biological Inc.). Kinetic information was calculated by fitting data to a 1:1 binding model using Biacore Insight Evaluation software (GE Life Science) to determine ka (association constant), kd (dissociation constant), and KD (equilibrium dissociation constant).

[3] = target: T3, Cyno B7-H3 (Sino biological Inc.) (cynomolgus monkey); assay: as above
T3 construct: also called cynomolgus monkey B7-H3
Method: as §1

[4] = target: T4, Human 2IgB7-H3 (Acrobiosystems) (human, UniProt Q5ZPR3-2 29-245, limits assumed); assay: as above
T4 construct: 2Ig isoform (the short splice form of the same UniProt entry)
T4 sequence (looked up): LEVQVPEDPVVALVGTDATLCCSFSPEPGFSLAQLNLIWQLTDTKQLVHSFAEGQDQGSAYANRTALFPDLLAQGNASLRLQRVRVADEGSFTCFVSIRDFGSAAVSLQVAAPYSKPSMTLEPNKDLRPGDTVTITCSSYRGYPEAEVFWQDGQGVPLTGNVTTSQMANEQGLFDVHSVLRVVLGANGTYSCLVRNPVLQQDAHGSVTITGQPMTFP
Method: as §1

[5] = target: T5, Human 4IgB7-H3 (Y-Biologics Inc.) (human, UniProt Q5ZPR3 29-466, limits assumed); assay: as above
T5 construct: 4Ig isoform
T5 sequence (looked up): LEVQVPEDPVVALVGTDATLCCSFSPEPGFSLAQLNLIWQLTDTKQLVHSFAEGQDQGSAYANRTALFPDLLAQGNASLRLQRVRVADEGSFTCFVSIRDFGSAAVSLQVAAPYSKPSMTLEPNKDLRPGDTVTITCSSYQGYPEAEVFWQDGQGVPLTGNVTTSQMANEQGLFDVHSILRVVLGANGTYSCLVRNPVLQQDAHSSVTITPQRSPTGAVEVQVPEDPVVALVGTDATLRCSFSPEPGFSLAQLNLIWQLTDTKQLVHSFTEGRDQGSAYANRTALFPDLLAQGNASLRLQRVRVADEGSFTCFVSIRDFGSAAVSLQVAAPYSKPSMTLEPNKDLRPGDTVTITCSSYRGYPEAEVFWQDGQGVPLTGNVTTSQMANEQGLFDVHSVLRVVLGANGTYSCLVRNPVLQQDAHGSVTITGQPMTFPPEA
Method: as §1

Kd [1]: 0.04 nM
koff [1]: 3e-05 s⁻¹
kon [1]: 600000 M⁻¹ s⁻¹
B3: AB3 (SA2103, CD276-039C05) (antibody, human IgG1, V domains shown)
VH: QVQLVESGAEVKKPGSSVKVSCKASGGTFSSYAISWVRQAPGQGLEWMGRIIPILGIANYAQKFQGRVTITADKSTSTAYMELSSLRSEDTAVYYCANGGDSSSWYTFDYWGQGTLITVSS
VL: DIQMTQSPSTLSASVGDKLTLTCRASQSISRWLAWYQQKPGKAPKLLIYKASYLQTGVPSRFSGSGTGTEFTLTISSLQPDDFATYYCQQYNTFPLTFAGGTKVEIK
notes: Whole human IgG

Kd [1]: 0.3 nM
koff [1]: 0.0003 s⁻¹
kon [1]: 900000 M⁻¹ s⁻¹
B4: AB8 (SA2579, CD276-039C05_LS_002H07) (antibody, human IgG1, V domains shown)
VH: B3 VH
VL: DIQMTQSPSTLSASVGDRVTITCRASQSIDNWLAWYQQKPGKAPKLLIYKASSLQSGVPSRFSGSGSGTEFTLTISSLQPDDFASYYCQQYDSNPLTFGGGTKVEIK
notes: Whole human IgG; also called CD276-39C05-LS-002H07

Kd [1]: 0.2 nM
koff [1]: 0.0006 s⁻¹
kon [1]: 3e+06 M⁻¹ s⁻¹
B7: AB6 (SA2566, CD276-039C05_LS_002B07) (antibody, human IgG1, V domains shown)
VH: B3 VH
VL: DIQMTQSPSSLSASVGDRVTITCRASQGISSYLAWYQQKPGKAPKLLIYAASTLQSGVPSRFSGSGSGTDFTLTISSLQPEDFATYYCQQYYSFPLTFGGGTKVEIK
notes: Whole human IgG; also called CD276-39C05-LS-002B07

Kd [1]: 0.3 nM
koff [1]: 0.0005 s⁻¹
kon [1]: 2e+06 M⁻¹ s⁻¹
B8: AB7 (SA2571, CD276-039C05_LS_002D03) (antibody, human IgG1, V domains shown)
VH: B3 VH
VL: DIQMTQSPSTLSASVGDRVTITCRASETISSWLAWYQQKPGKAPKLLIYKASSLQSGVPSRFSGSGSGTEFTLTISSLQPDDFATYYCQQYYSYPITFGQGTRLEIK
notes: Whole human IgG; also called CD276-39C05_LS_002D03

The next lines start with the binder.

B1: AB2 (SA2107, CD276-040F10) (antibody, human IgG1, V domains shown)
VH: QVQLVESGAEVKKPGASVKLSCKASGYTFSSYWMHWVRQAPGQRLEWMGEINPGNGHTNYNEKFKSRVTITVDKSASTAYMELSSLRSEDTAVYYCVADPRRPKVPTALFVYWGQGTLVTVSS
VL: DIQMTQSPSSVSASVGDRVTISCRASQGIGTWLAWYQQKPGKAPRLLIYAASSLDSGVPSRFSASGSGTDFTLTISSLQPEDFATYYCQQAINFPITFGQGTRLEIK
notes: Whole human IgG
Kd [1]: 0.05 nM
koff [1]: 4e-05 s⁻¹
kon [1]: 700000 M⁻¹ s⁻¹
Kd [2]: 47.3 nM
koff [2]: 0.0193 s⁻¹
kon [2]: 408000 M⁻¹ s⁻¹
Kd [3]: 0.919 nM
koff [3]: 0.000442 s⁻¹
kon [3]: 481000 M⁻¹ s⁻¹
Kd [4]: 25 nM
koff [4]: 0.00515 s⁻¹
kon [4]: 206000 M⁻¹ s⁻¹
Kd [5]: 0.446 nM
koff [5]: 0.000199 s⁻¹
kon [5]: 446000 M⁻¹ s⁻¹

B2: AB2.1 (SA2107.01, CD276-040F10_IgG1_A1C) (antibody, V domains shown)
VH: B1 VH
VL: DIQMTQSPSSVSASVGDRVTISCRASQGIGTWLAWYQQKPGKAPRLLIYAASSLDSGVPSRFSASGSGTDFTLTISSLQPEDFATYYCQQAINFPITFGQGTRLEIKR
notes: Tested unconjugated; also called SA2107 A121C
Kd [1]: 0.05 nM
koff [1]: 2e-05 s⁻¹
kon [1]: 500000 M⁻¹ s⁻¹
Kd [2]: 42.4 nM
koff [2]: 0.0178 s⁻¹
kon [2]: 420000 M⁻¹ s⁻¹
Kd [3]: 1.05 nM
koff [3]: 0.000504 s⁻¹
kon [3]: 480000 M⁻¹ s⁻¹
Kd [4]: 21.6 nM
koff [4]: 0.00469 s⁻¹
kon [4]: 217000 M⁻¹ s⁻¹
Kd [5]: 1.06 nM
koff [5]: 0.00047 s⁻¹
kon [5]: 442000 M⁻¹ s⁻¹

B5: AB5 (SA2563, CD276-039C05_LS_002A11) (antibody, human IgG1, V domains shown)
VH: B3 VH
VL: B4 VL with V19L, S28N, D30N, N31S, S53Y, S56T, S76T
notes: Whole human IgG; also called CD276-39C05_LS_002A11
Kd [1]: 0.1 nM
koff [1]: 0.0002 s⁻¹
kon [1]: 1e+06 M⁻¹ s⁻¹

B6: AB4 (SA2545, CD276-039C05_LS_001E10) (antibody, human IgG1, V domains shown)
VH: B3 VH
VL: DIQMTQSPSTLSASVGDRVNITCRASQTINSWLAWYQQKPGKAPKLLIYKASYLQTGVPSRFSGSGAGTEFTLTISSLQPDDFATYYCQQYNSYSLTFGGGTKVEIK
notes: Whole human IgG; also called CD276-39C05-LS-001E10
Kd [1]: 0.06 nM
koff [1]: 7e-05 s⁻¹
kon [1]: 1e+06 M⁻¹ s⁻¹

B9: AB9 (SC0041, CD276-m8524), control anti-B7-H3 antibody (antibody, human IgG1, V domains shown)
VH: QVQLQQSGAEVKKPGSSVKVSCKASGGTFSSYAISWVRQAPGQGLEWMGGIIPILGIANYAQKFQGRVTITADESTSTAYMELSSLRSEDTAVYYCARGGSGSYHMDVWGKGTTVTVSS
VL: EIVLTQSPATLSLSPGERATLSCRASQSVSSYLAWYQQKPGQAPRLLIYDASNRATGIPARFSGSGSGTDFTLTISSLEPEDFAVYYCQQRSNWPPRITFGQGTRLEIKR
notes: Control antibody produced by the applicants; Human IgG1, Kappa-T2S
Kd [1]: 0.3 nM
koff [1]: 0.0002 s⁻¹
kon [1]: 500000 M⁻¹ s⁻¹
Kd [2]: 49 nM
koff [2]: 0.0294 s⁻¹
kon [2]: 600000 M⁻¹ s⁻¹
Kd [3]: 0.278 nM
koff [3]: 0.000242 s⁻¹
kon [3]: 871000 M⁻¹ s⁻¹
Kd [4]: 208 nM
koff [4]: 0.107 s⁻¹
kon [4]: 515000 M⁻¹ s⁻¹
Kd [5]: 0.518 nM
koff [5]: 0.000617 s⁻¹
kon [5]: 1.19e+06 M⁻¹ s⁻¹
